Test results published in patent publication US20230272086A1 (CHIA TAI TIANQING PHARMACEUTICAL GROUP, published 2023).
Changes are numbered by the printed parent chain.

T1: human ST2 (hST2, Interleukin-1 receptor-like 1 isoform A) on cells (human, UniProt Q01638 19-556)
T1 construct: the same id is used for hST2 naturally expressed on KU812 cells and on human CD4+ T cells; also called HEK293T-hST2-NFκB-Luciferase; KU812-NFκB-Luciferase
T1 sequence: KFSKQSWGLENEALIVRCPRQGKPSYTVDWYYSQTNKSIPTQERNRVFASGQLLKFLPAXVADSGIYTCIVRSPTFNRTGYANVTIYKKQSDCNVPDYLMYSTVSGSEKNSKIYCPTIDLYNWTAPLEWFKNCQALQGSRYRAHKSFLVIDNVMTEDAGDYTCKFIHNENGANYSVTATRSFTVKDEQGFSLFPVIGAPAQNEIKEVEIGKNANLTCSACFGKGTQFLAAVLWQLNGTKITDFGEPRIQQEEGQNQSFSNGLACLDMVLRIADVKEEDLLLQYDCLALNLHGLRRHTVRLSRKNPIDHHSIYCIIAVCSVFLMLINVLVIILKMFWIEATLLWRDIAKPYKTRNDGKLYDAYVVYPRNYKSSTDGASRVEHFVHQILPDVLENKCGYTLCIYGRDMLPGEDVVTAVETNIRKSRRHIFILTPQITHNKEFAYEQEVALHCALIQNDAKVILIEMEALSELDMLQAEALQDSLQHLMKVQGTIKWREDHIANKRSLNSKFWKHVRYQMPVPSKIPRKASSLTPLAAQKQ

T2: cynomolgus monkey ST2 on HEK293T-Cyno-ST2-NFκB-Luciferase cells (cynomolgus monkey, UniProt Q01638 19-556 (human entry))
T2 chain: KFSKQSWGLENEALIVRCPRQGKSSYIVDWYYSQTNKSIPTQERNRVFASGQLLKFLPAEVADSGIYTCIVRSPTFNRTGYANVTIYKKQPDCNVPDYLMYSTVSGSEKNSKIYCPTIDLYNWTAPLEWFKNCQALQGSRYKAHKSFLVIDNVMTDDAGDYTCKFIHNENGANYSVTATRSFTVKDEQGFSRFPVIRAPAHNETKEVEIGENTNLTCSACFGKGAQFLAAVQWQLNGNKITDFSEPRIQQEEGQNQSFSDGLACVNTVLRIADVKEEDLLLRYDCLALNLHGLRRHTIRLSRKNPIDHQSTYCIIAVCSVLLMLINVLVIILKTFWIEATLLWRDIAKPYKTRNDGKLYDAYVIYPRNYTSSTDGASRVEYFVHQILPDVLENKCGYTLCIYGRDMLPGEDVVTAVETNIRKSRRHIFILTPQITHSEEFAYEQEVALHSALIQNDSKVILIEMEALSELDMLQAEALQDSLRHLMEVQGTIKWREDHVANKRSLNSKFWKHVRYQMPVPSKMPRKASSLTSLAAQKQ

T3: cynomolgus monkey ST2 antigen (Cyno-ST2-his, Sino biological, 90915-C08H) (cynomolgus monkey, UniProt Q01638 19-328 (human entry))
T3 construct: Bought protein; not shown: his tag
T3 chain: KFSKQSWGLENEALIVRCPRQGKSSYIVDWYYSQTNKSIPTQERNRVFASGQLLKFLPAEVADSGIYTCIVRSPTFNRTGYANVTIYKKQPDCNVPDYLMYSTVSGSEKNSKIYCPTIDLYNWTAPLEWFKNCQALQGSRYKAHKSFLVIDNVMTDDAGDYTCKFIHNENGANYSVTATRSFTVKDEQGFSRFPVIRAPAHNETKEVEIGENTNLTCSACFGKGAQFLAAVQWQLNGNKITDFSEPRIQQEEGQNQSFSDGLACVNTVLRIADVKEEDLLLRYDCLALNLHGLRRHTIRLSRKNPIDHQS

B1: RG6149 (antibody Ab2 in CN104334582, prepared in-house) (antibody, human IgG2, kappa, V domains shown)
VH: EVQLVQSGAEVKKPGESLKISCKGSGYSFTNYWIGWVRQMPGKGLEWMGIIYPGNSDTRFSPSFQGQVTISADKSITTAYLQWSSLKASDTAMYYCARHGTSSDYYGLDVWGQGTTVTVSS
VL: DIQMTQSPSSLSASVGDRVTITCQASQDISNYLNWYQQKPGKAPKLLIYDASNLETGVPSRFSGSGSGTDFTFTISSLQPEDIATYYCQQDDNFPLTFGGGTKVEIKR
notes: Control anti-ST2 antibody
B2: Chimeric 31C8 (antibody, human IgG2, kappa, V domains shown)
VH: QVQLQQSGPELVRPGASVTLSCKASGYIFIDSEMHWVKQTPVHGLEWIGAIDPETGDTVYNQKFKGKATLTADKSSSTASMELSSLTSEDSAVYYCTGSTTDYYFAYWGQGTTLTVSS
VL: DIVMTQAAFSNPVTLGTSASISCRSSKSLLHSNGIIYLYWYLQKPGQSPQLLIYQMSNLASGVPDRFSSSGSGTDFTLRISRVEAEDVGVYYCAQNLELPFTFGSGTKLEIKR
notes: also called xi31C8
B3: Chimeric 3C6 (antibody, human IgG2, kappa, V domains shown)
VH: QVQLQQSGAEVVRPGASVTLSCKASDYTITDYEMHWVKQTPVHGLEWIGAIDPETGDTAYSQNFKGKATLTADESSSTAYMELSSLTSEDSAVYYCSRSATDYYFASWGQGTTLTVSS
VL: B2 VL with F9I, I21M, I36T, Q47H, R79K
notes: also called xi3C6
B4: Chimeric 8F4 (antibody, human IgG2, kappa, V domains shown)
VH: B2 VH with P9A, Y27H, I30T, S32Y, H35Q, I51F, V59A, S80Y, T97S, T113S
VL: B2 VL with I2V, A7T
notes: also called xi8F4
B5: Chimeric 7D1 (antibody, human IgG2, kappa, V domains shown)
VH: QVQLQQSGAELVRPGASVTLSCKASGYTFTDYEMHWVKQTPVHGLDWIGTIDPETGDTAYNQKFKGRATLTADKSSSTAYMELSSLTSEDSAVYYCTRYSYTNSPYGMDYWGQGTSVTVSS
VL: DVVMTQTPKFLLVSAGDRVTITCKASQSVSNDVAWYQQKPGQSPKLLIYYASNRYTGVPDRFTGSGYGTDFTFTINTVQAEDLAVYFCQQDYSSPYTFGGGTKLEIKR
notes: also called xi7D1
B6: Chimeric 17E2 (antibody, human IgG2, kappa, V domains shown)
VH: QVQLQQSGAELVRPGASVTLSCKASGYTFTDYEMHWVKQTPVLGLEWIGAIDPETGDTAYNQKFKGKATLTADKSSSTAYMELSSLASEDSAVYYCIRVDSNYDYFDYWGQDTTLTVSS
VL: DIVLTQSPPILSASPGEKVTMTCRASSSVSYMHWYQQKPGSSPKPWIYDTSNLASGVPARFSGSGSGTSYSLTISRVEAEDAATYYCQQWSSNPLTFGAGTKLELKR
notes: also called xi17E2
B7: Chimeric 26A1 (antibody, human IgG2, kappa, V domains shown)
VH: B2 VH with P9A, G26D, I30T, M34I, P41L, V59A, S80Y, D90G, T97S, Y103C
VL: B2 VL
notes: also called xi26A1

What follows are binders tested against T1, human ST2 (hST2, Interleukin-1 …) (assay: flow cytometry on HEK293T-hST2-NFκB-Luciferase cells).
Protocol: (§1) The binding capacity of the anti-ST2 antibodies to hST2-overexpressing cell lines and cyno-ST2-overexpressing cell lines was analyzed using an FACS-based method through binding assays with the hST2 (SEQ ID NO:1)-overexpressing HEK293T cell line (HEK293T-hST2-NFκB-Luciferase) and the cynomolgus monkey ST2 (SEQ ID NO: 10)-overexpressing HEK293T cell line (HEK293T-Cyno-ST2-NFKB-Luciferase). HEK293 cells were transfected with the pLenti6.3- hST2 plasmid and the pLenti6.3-NFκB-luciferasae plasmid using a lentiviral transfection system to construct the cell line HEK293T-hST2-NFκB-Luciferase. HEK293T cells were transfected with the pLenti6.3-cynoST2 plasmid and the pLenti6.3-NFκB-luciferasae plasmid to construct the cell line HEK293T-Cyno-ST2-NFκB-Luciferase.
(§2) 3 × 10⁵ HEK293T-hST2-NFκB-Luciferase or HEK293T-Cyno-ST2-NFκB-Luciferase cells were added to a 96-well culture plate. Serially diluted anti-ST2 antibodies (serially diluted 4-fold from an initial concentration of 667 nM to 8 concentrations in binding assays with the HEK293T-hST2-NFκB-Luciferase cells; serially diluted 4-fold from an initial concentration of 400 nM to 8 concentrations in binding assays with the HEK293T-Cyno-ST2-NFκB-Luciferase cells) were added to the cell suspensions. After the plate was incubated at room temperature for 60 min, the cells were washed 3 times with PBS. […] The cells were washed 3 times with PBS and resuspended in 100 µ1L of PBS, and then the fluorescence signals were analyzed and detected using a flow cytometer (BD, Accuri C6). The binding capacity of the anti-ST2 antibodies to hST2 and cyno-ST2 on the cell line surfaces was measured in terms of the mean fluorescence intensity (MFI) of staining. The data were analyzed using GraphPad Prism5, and the EC₅₀ values were calculated. The EC₅₀ values for the binding of the anti-ST2 chimeric antibodies to hST2 and Cyno-ST2 at the cellular level are shown in Table 8 and FIGS. 7-8.

EC50 | Binder
0.589 nM | B1
0.298 nM | B2
0.349 nM | B3
0.343 nM | B4
0.265 nM | B5
0.224 nM | B6

Target: T2, cynomolgus monkey ST2 on …
Test: flow cytometry on HEK293T-Cyno-ST2-NFκB-Luciferase cells
Protocol: as §1, §2

EC50 | Binder
0.647 nM | B1
0.83 nM | B2
105 nM | B3
415 nM | B7
0.458 nM | B4
0.394 nM | B5
0.487 nM | B6

Target: T3, cynomolgus monkey ST2 antigen …
Test: SPR (Biacore T200), Cyno-ST2-his captured by anti-his antibody on CM5, antibody as analyte, 1:1 model
Protocol: The reaction signals were detected in real time using a Biacore instrument (Cytiva, BiacoreT200), and then an association-dissociation curve was obtained. After the completion of dissociation in each cycle, the biochip was regenerated with a regeneration solution for the next capture; the procedure was repeated until the affinity of the different antibodies for ST2 was determined. The acquired data were finally analyzed using the GE BIAevaluation software with a 1:1 (Langmuir) binding model to determine the association rate constants ka (kon) and the dissociation rate constants kd (koff), and the dissociation constants KD were given by KD = kd/ka. The determined affinity of the anti-ST2 antibody for human ST2 antigen (hST2-ECD-mFc), cynomolgus monkey ST2 antigen (Cyno-ST2-his, Sino biological, 90915-C08H) and the determined affinity of the anti-ST2 chimeric antibodies for ST2 were shown in Table 5.

Kd | Binder
0.049 nM | B1
0.323 nM | B2
152 nM | B3
69.8 nM | B7
4.04 nM | B4
0.124 nM | B5
0.0257 nM | B6
